Source: PMC10816986, “The Role of Key Amino Acids of the Human Fe(II)/2OG-Dependent Dioxygenase ALKBH3 in Structural Dynamics and Repair Activity toward Methylated DNA” (International Journal of Molecular Sciences, 2024)
Numbering of substitutions follows the chain as printed.

Assays:
[1] = parameters: method as in PMID 22443471; details: cited from earlier work
[2] = tested on: m3C_FRET substrate (m3C-containing DNA); parameters: method as in PMID 31847292; details: AlkB-ssDNA, pre-steady-state; cited from earlier work
[3] = parameters: method as in PMID 35956910, doi:10.1134/S1068162019060190; details: previous investigations; read-out: Kd for complexes with transitional metals and 2OG; cited from earlier work
[4] = molecular target: T1, ALKBH3 L177A (Homo sapiens, UniProt Q96Q83 1-286, L177A); assay: intrinsic Trp fluorescence titration; apoprotein, 2 mM EDTA, no Fe(II)/2OG; Titration: 50 mM HEPES-KOH pH 7.8, 50 mM KCl, 10 mM MgCl2, 2 mM EDTA, 25 °C, 1 µM apoprotein; stopped-flow: with Fe(II) and 2OG, 0.5-4.0 µM DNA (buffer not in material); details: protein: recombinant; (Ni-chelating purification); single strand
T1 sequence: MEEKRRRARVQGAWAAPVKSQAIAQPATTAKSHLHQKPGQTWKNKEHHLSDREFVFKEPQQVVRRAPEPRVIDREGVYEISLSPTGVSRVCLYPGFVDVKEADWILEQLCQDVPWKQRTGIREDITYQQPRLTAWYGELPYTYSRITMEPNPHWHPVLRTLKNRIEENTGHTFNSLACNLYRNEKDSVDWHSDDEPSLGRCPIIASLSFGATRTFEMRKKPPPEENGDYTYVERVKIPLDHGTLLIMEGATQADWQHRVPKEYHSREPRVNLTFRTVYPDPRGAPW

[5] = molecular target: T2, ALKBH3 wt (Homo sapiens, UniProt Q96Q83 1-286); assay: as above; details: protein: recombinant; tags: N-terminal His-tag (pET28a); single strand
T2 sequence: T1 sequence with A177L

[6] = molecular target: T3, ALKBH3 H191A (Homo sapiens, UniProt Q96Q83 1-286, H191A); assay: as above; details: protein: recombinant; (Ni-chelating purification); single strand
T3 sequence: T1 sequence with A177L, H191A

[7] = molecular target: T4, ALKBH3 Y143A (Homo sapiens, UniProt Q96Q83 1-286, Y143A); assay: as above; details: protein: recombinant; tags: N-terminal His-tag (pET28a); single strand
T4 sequence: T1 sequence with Y143A, A177L

[8] = molecular target: T2, ALKBH3 wt; assay: stopped-flow FRET kinetics (DynaFit); Fe(II), 2OG; overall Ka = K1+K1K2+K1K2K3; Titration: 50 mM HEPES-KOH pH 7.8, 50 mM KCl, 10 mM MgCl2, 2 mM EDTA, 25 °C, 1 µM apoprotein; stopped-flow: with Fe(II) and 2OG, 0.5-4.0 µM DNA (buffer not in material); details: protein: recombinant; tags: N-terminal His-tag (pET28a); label: 5'-6-FAM, 3'-BHQ1; single strand
[9] = molecular target: T5, ALKBH3 Y143F (Homo sapiens, UniProt Q96Q83 1-286, Y143F); assay: as above; details: protein: recombinant; tags: N-terminal His-tag (pET28a); label: 5'-6-FAM, 3'-BHQ1; single strand
T5 sequence: T1 sequence with Y143F, A177L

[10] = molecular target: T2, ALKBH3 wt; assay: stopped-flow FRET kinetics (DynaFit); Fe(II), 2OG; enzyme-product complex; Titration: 50 mM HEPES-KOH pH 7.8, 50 mM KCl, 10 mM MgCl2, 2 mM EDTA, 25 °C, 1 µM apoprotein; stopped-flow: with Fe(II) and 2OG, 0.5-4.0 µM DNA (buffer not in material); details: protein: recombinant; tags: N-terminal His-tag (pET28a); label: 5'-6-FAM, 3'-BHQ1; single strand
[11] = molecular target: T5, ALKBH3 Y143F; assay: as above; details: protein: recombinant; tags: N-terminal His-tag (pET28a); label: 5'-6-FAM, 3'-BHQ1; single strand
[12] = tested on: single-stranded DNA substrate m3C_FAM; parameters: method as in PMID 35956910; details: similar m3C-containing substrate, identical conditions; cited from earlier work

B1: AlkB: E. coli AlkB dioxygenase, literature comparison (protein, UniProt P05050 1-216, looked up)
Alpha-ketoglutarate-dependent …: MLDLFADAEPWQEPLAAGAVILRRFAFNAAEQLIRDINDVASQSPFRQMVTPGGYTMSVAMTNCGHLGWTTHRQGYLYSPIDPQTNKPWPAMPQSFHNLCQRAATAAGYPDFQPDACLINRYAPGAKLSLHQDKDEPDLRAPIVSVSLGLPAIFQFGGLKRNDPLKRLLLEHGDVVVWGGESRLFYHGIQPLKAGFHPLTIDCRYNLTFRQAGKKE
**Q.** With B1 as the molecule, how does the Tm [1] read?
**A.** Its Tm is 54 °C.

**Q.** What about the “kr (hydroxylation of the substrate's methyl group)” value [2] of the same molecule?
**A.** The value was 0.19 s⁻¹.

**Q.** And the Kd [3]?
**A.** Its Kd is 15 to 50 µM.

**Q.** For ACAGGATCCGGCATA (ssDNA, N3-methylcytosine at position 9) [m3C], which Kd [4] is on record?
**A.** Its Kd is 5.7 ± 0.3 µM.

**Q.** And the Kd [5]?
**A.** Its Kd is 2.8 ± 0.1 µM.

**Q.** And the Kd [6]?
**A.** The Kd was 4.3 ± 0.3 µM.

**Q.** And the Kd [7]?
**A.** Its Kd is 6.3 ± 0.6 µM.

**Q.** Which results are given for ACAGGATCCGGCATA (ssDNA, N3-methylcytosine at position 9) [m3C_FRET]?
**A.** Ka [8]: 1.9e+06 M⁻¹; Ka [9]: 1.4e+06 M⁻¹

**Q.** What does the source list for ACAGGATCCGGCATA (ssDNA, none (m3C demethylated to C)) [m3C_FRET repaired product]?
**A.** Kd [10]: 0.72 µM; Kd [11]: 0.083 µM

B2: ALKBH2: human AlkB homolog 2 dioxygenase, literature comparison (protein, UniProt Q6NS38 1-261, looked up)
DNA oxidative demethylase …: MDRFLVKGAQGGLLRKQEEQEPTGEEPAVLGGDKESTRKRPRREAPGNGGHSAGPSWRHIRAEGLDCSYTVLFGKAEADEIFQELEKEVEYFTGALARVQVFGKWHSVPRKQATYGDAGLTYTFSGLTLSPKPWIPVLERIRDHVSGVTGQTFNFVLINRYKDGCDHIGEHRDDERELAPGSPIASVSFGACRDFVFRHKDSRGKSPSRRVAVVRLPLAHGSLLMMNHPTNTHWYHSLPVRKKVLAPRVNLTFRKILLTKK
**Q.** What does the source list for B2?
**A.** observed rate constant for demethylation, kobs [12]: 0.22 min⁻¹; Kd [3]: 15 to 50 µM
